Data: paper PMC3433420
“And” between values parts separate entries of the source, which are not always exact repeats. Identical values can stand only once.

Assays:
[1] = target: ErbB3 Y789 non-phosphorylated peptide, rhodamine-labelled (human); test: fluorescence polarisation; saturation binding in solution: rhodamine peptide fixed at 10 nM, protein titrated 0.002-10 uM, 20 min at room temperature; assay buffer 20 mM HEPES, 100 mM KCl, 0.1% Tween-20, 5 mM DTT, pH 7.8; apparent KD
[2] = target: SH2D3C SH2 domain (human) (UniProt Q8N5H7); test: peptide or protein array; SH2/PTB proteins spotted on aldehyde slides, rhodamine peptide titrated in buffer B (20 mM HEPES, 100 mM KCl, 0.1% Tween-20, 5 mM DTT, pH 7.8), 1 h at room temperature; replicate assays
[3] = target: PTPN11 tandem SH2 domains (human); test: as above
[4] = target: PIK3R3 tandem SH2 domains (human); test: as above
YES1 SH2 domain (human) = YES1 SH2 domain (human) (UniProt P07947); test: as above
LCK SH2 domain (human) = LCK SH2 domain (human) (UniProt P06239); test: as above
[5] = target: PIK3R1 C-terminal SH2 domain (human); test: as above
SH2B3 SH2 domain (human) = SH2B3 SH2 domain (human) (UniProt Q9UQQ2); test: as above
[6] = target: RASA1 C-terminal SH2 domain (human); test: as above
[7] = target: ZAP70 C-terminal SH2 domain (human) (UniProt P43403); test: as above
HSH2D SH2 domain (human) = HSH2D SH2 domain (human) (UniProt Q96JZ2); test: as above
[8] = target: SH2D1A SH2 domain (human) (UniProt O60880); test: as above
[9] = target: SYK N-terminal SH2 domain (human); test: as above
GRB10 SH2 domain (human) = GRB10 SH2 domain (human) (UniProt Q13322); test: as above
[10] = target: SH2D3A SH2 domain (human) (UniProt Q9BRG2); test: as above
NCK1 SH2 domain (human) = NCK1 SH2 domain (human) (UniProt P16333); test: as above
ABL2 SH2 domain (human) = ABL2 SH2 domain (human) (UniProt P42684); test: as above
SHF SH2 domain (human) = SHF SH2 domain (human) (UniProt Q7M4L6); test: as above
GRAP2 SH2 domain (human) = GRAP2 SH2 domain (human) (UniProt O75791); test: as above
SHC3 SH2 domain (human) = SHC3 SH2 domain (human) (UniProt Q92529); test: as above
[11] = target: RASA1 N-terminal SH2 domain (human) (UniProt P20936); test: as above
[12] = target: SH2D1B SH2 domain (human) (UniProt O14796); test: as above
SRC SH2 domain (human) = SRC SH2 domain (human) (UniProt P12931); test: as above
HCK SH2 domain (human) = HCK SH2 domain (human) (UniProt P08631); test: as above
[13] = target: SYK tandem SH2 domains (human); test: as above
BMX SH2 domain (human) = BMX SH2 domain (human) (UniProt P51813); test: as above
NCK2 SH2 domain (human) = NCK2 SH2 domain (human) (UniProt O43639); test: as above
[14] = target: PLCG2 tandem SH2 domains (human); test: as above
CRK SH2 domain (human) = CRK SH2 domain (human) (UniProt P46108); test: as above
TNS4 SH2 domain (human) = TNS4 SH2 domain (human) (UniProt Q8IZW8); test: as above
CRKL SH2 domain (human) = CRKL SH2 domain (human) (UniProt P46109); test: as above
[15] = target: PIK3R2 tandem SH2 domains (human) (UniProt O00459); test: as above
BLK SH2 domain (human) = BLK SH2 domain (human) (UniProt P51451); test: as above
[16] = target: SH3BP2 SH2 domain (human) (UniProt P78314); test: as above
BLNK SH2 domain (human) = BLNK SH2 domain (human) (UniProt Q8WV28); test: as above
ABL1 SH2 domain (human) = ABL1 SH2 domain (human) (UniProt P00519); test: as above
ABL1 SH2 domain (human), sequence (P00519 127-217): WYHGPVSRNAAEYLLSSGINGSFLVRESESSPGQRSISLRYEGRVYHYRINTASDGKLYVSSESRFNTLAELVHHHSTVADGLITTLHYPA

SH3BP2 SH2 domain (human), sequence (P78314 457-555): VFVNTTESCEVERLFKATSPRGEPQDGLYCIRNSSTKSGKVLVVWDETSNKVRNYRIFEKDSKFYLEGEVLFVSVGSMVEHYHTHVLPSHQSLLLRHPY
SH2D1B SH2 domain (human), sequence (O14796 5-101): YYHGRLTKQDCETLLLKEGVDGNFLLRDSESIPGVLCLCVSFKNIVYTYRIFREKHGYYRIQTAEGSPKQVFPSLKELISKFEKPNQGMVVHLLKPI
SH2D3A SH2 domain (human), sequence (Q9BRG2 15-114): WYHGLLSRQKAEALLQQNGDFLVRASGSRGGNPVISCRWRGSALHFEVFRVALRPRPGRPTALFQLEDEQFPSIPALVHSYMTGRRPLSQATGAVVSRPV
ABL2 SH2 domain (human), sequence (P42684 173-263): as the sequence (P00519 127-217) above, with N9S, G18L, R35L, A53T, S54A, L58V, S61T, S62A, N67S, I84V counted along it
BLK SH2 domain (human), sequence (P51451 124-220): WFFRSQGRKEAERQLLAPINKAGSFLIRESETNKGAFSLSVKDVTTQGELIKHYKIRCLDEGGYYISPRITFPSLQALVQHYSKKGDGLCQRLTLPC
SHF SH2 domain (human), sequence (Q7M4L6 323-418): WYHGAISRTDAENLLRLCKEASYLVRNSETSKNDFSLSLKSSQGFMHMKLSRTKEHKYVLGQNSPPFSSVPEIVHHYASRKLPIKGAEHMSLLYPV
ZAP70 C-terminal SH2 domain (human), sequence (P43403 whole entry, the tested form may be a part): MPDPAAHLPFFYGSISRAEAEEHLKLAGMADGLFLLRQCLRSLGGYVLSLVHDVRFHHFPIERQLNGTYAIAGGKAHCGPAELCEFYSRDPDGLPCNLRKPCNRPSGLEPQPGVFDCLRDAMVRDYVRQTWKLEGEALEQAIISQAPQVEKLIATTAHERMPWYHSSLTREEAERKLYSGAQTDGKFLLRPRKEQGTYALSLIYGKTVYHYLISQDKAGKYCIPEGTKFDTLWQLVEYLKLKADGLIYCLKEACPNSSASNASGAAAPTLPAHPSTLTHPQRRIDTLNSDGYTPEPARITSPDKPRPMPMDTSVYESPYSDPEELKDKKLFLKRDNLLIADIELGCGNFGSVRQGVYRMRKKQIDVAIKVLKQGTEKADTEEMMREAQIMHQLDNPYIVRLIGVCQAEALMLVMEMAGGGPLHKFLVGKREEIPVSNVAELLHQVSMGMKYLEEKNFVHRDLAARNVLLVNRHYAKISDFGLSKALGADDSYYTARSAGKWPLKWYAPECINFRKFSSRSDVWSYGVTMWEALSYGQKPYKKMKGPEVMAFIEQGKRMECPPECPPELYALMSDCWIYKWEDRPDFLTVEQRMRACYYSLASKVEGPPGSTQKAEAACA
SH2D1A SH2 domain (human), sequence (O60880 6-104): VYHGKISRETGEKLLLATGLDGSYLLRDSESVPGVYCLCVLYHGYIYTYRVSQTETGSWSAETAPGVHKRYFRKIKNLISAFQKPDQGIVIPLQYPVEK
YES1 SH2 domain (human), sequence (P07947 158-255): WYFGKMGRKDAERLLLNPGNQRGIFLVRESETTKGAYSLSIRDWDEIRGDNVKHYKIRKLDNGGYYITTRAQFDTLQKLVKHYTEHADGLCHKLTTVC
GRB10 SH2 domain (human), sequence (Q13322 493-574): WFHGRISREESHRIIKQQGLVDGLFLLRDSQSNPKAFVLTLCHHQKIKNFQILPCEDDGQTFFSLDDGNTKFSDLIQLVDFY
HSH2D SH2 domain (human), sequence (Q96JZ2 34-125): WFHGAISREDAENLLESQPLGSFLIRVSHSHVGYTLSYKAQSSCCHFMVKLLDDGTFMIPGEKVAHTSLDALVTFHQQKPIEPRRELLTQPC
BMX SH2 domain (human), sequence (P51813 296-392): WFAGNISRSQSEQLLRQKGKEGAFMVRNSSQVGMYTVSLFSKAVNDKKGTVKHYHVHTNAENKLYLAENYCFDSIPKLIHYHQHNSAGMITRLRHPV
BLNK SH2 domain (human), sequence (Q8WV28 346-453): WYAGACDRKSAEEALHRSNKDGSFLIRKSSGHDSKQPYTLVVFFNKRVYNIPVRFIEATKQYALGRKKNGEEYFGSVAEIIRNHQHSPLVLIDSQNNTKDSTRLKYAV
SH2B3 SH2 domain (human), sequence (Q9UQQ2 364-462): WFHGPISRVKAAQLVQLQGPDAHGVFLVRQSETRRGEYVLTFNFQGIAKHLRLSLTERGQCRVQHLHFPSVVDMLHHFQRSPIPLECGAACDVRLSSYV
PIK3R2 tandem SH2 domains (human), sequence (O00459 whole entry, the tested form may be a part): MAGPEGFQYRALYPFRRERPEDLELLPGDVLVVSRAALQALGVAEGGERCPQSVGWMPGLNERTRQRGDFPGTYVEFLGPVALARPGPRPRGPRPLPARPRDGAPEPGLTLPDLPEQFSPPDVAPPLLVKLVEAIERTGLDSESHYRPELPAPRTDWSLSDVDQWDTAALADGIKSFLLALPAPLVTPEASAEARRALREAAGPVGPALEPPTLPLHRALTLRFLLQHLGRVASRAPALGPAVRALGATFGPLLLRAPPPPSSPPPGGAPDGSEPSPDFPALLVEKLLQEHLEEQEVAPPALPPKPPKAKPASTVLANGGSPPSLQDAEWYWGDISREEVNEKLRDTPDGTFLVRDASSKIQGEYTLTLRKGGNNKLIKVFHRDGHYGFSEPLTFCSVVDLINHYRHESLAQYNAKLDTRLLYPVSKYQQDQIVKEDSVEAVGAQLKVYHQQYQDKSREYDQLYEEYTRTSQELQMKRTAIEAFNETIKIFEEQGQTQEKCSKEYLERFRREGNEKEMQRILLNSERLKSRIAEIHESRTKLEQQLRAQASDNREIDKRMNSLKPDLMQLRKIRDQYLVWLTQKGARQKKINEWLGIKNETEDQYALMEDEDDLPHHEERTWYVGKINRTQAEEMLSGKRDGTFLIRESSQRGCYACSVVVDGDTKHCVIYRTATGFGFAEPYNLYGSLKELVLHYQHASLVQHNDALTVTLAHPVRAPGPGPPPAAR
SH2D3C SH2 domain (human), sequence (Q8N5H7 220-319): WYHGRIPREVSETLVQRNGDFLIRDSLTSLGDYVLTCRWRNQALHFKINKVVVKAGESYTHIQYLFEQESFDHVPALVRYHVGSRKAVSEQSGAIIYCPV
RASA1 N-terminal SH2 domain (human), sequence (P20936 whole entry, the tested form may be a part): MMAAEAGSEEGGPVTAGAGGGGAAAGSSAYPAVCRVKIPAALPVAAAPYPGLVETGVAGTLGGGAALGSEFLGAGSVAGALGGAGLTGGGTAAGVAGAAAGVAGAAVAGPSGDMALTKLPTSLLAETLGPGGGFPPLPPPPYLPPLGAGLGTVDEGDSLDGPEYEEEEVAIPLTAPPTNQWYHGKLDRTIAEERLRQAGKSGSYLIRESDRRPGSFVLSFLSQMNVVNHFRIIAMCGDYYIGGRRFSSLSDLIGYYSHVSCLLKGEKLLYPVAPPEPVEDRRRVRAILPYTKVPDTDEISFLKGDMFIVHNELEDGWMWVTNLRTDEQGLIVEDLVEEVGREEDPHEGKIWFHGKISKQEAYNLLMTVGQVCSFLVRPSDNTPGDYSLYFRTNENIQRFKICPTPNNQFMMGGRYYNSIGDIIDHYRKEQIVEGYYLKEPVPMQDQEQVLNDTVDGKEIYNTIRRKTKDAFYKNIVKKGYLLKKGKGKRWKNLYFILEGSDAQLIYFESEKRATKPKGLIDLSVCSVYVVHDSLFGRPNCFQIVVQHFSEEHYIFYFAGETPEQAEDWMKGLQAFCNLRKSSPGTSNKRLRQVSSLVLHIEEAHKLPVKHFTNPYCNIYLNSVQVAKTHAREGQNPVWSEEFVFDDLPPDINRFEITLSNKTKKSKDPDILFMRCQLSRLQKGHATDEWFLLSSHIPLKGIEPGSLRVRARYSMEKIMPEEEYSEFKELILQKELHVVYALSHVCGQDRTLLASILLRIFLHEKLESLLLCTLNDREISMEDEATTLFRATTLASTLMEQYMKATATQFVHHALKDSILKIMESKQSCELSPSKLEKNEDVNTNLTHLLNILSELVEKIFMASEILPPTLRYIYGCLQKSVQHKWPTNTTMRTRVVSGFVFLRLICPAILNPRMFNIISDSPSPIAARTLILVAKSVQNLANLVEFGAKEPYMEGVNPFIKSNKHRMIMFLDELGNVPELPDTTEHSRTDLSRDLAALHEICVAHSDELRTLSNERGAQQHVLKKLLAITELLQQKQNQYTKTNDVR
GRAP2 SH2 domain (human), sequence (O75791 58-149): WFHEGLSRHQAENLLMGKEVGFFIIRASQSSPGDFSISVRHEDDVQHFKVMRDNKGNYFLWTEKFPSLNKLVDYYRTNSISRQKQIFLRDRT
LCK SH2 domain (human), sequence (P06239 127-224): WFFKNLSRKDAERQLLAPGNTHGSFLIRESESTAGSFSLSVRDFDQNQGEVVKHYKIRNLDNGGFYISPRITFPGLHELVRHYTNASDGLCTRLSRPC
CRKL SH2 domain (human), sequence (P46109 14-102): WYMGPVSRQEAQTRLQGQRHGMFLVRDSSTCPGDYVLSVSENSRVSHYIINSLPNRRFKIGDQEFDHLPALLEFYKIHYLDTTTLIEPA
CRK SH2 domain (human), sequence (P46108 13-118): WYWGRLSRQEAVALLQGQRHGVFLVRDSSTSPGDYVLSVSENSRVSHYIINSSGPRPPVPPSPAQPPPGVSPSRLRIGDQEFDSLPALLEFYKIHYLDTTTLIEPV
HCK SH2 domain (human), sequence (P08631 144-241): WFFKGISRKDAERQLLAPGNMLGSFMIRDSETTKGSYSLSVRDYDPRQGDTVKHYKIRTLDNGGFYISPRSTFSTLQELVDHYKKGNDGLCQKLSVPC
SHC3 SH2 domain (human), sequence (Q92529 499-590): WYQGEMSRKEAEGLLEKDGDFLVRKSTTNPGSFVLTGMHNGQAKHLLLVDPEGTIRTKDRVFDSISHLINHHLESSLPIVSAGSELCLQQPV
NCK2 SH2 domain (human), sequence (O43639 285-380): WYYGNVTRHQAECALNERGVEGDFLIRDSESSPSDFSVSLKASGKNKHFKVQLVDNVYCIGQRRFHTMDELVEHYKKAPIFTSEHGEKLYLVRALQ

Substance: PIK3R1 tandem SH2 domains (from UniProt P27986 1-724) (domain or fragment)
- Kd [1]: 1.59 µM

Substance: ErbB4 pY733 phosphopeptide (18-mer), rhodamine-labelled, for protein microarrays
- Kd [2]: 9.36 µM
- Kd [3]: 0.177 µM
- Kd [4]: 7.82 µM and 10.5 µM
- Kd (YES1 SH2 domain (human)): 1.18 µM and 1.17 µM and 0.421 µM
- Kd (LCK SH2 domain (human)): 1.24 µM
- Kd [5]: 0.438 µM
- Kd (SH2B3 SH2 domain (human)): 1.18 µM
- Kd [6]: 10.4 µM
- Kd [7]: 1.53 µM and 1.52 µM and 0.404 µM
- Kd (HSH2D SH2 domain (human)): 2.21 µM
- Kd [8]: 0.823 µM and 1.61 µM and 1.68 µM
- Kd [9]: 3.04 µM and 3.45 µM and 0.803 µM
- Kd (GRB10 SH2 domain (human)): 1.27 µM
- Kd [10]: 0.603 µM and 0.79 µM and 0.912 µM
- Kd (NCK1 SH2 domain (human)): 0.724 µM
- Kd (ABL2 SH2 domain (human)): 1.37 µM and 1.73 µM and 0.268 µM
- Kd (SHF SH2 domain (human)): 2.7 µM and 8.5 µM
- Kd (GRAP2 SH2 domain (human)): 0.852 µM
- Kd (SHC3 SH2 domain (human)): 7.66 µM
- Kd [11]: 0.685 µM
- Kd [12]: 0.404 µM and 1.28 µM and 1.34 µM

Substance: ErbB4 pY1221 phosphopeptide (18-mer), rhodamine-labelled, for protein microarrays
- Kd (SRC SH2 domain (human)): 0.443 µM
- Kd (HCK SH2 domain (human)): 0.07 µM
- Kd [4]: 0.544 µM
- Kd (YES1 SH2 domain (human)): 1.32 µM and 0.818 µM
- Kd [13]: 0.811 µM and 1.29 µM and 0.285 µM
- Kd (BMX SH2 domain (human)): 0.419 µM
- Kd (NCK2 SH2 domain (human)): 0.211 µM
- Kd [7]: 0.791 µM
- Kd (HSH2D SH2 domain (human)): 0.994 µM
- Kd [14]: 1.25 µM and 1.38 µM
- Kd [8]: 0.766 µM
- Kd (CRK SH2 domain (human)): 64.5 µM
- Kd (TNS4 SH2 domain (human)): 0.323 µM
- Kd [9]: 15.6 µM and 9.49 µM
- Kd (GRB10 SH2 domain (human)): 0.234 µM
- Kd [10]: 0.605 µM
- Kd (CRKL SH2 domain (human)): 0.107 µM
- Kd [15]: 1.34 µM
- Kd (BLK SH2 domain (human)): 1.15 µM and 1.16 µM and 0.583 µM
- Kd (ABL2 SH2 domain (human)): 0.906 µM and 0.283 µM
- Kd (SHF SH2 domain (human)): 1.19 µM
- Kd [16]: 2.36 µM and 10.9 µM and 1.24 µM
- Kd (BLNK SH2 domain (human)): 4 µM
- Kd (ABL1 SH2 domain (human)): 0.25 µM
